From paper PMC10163920 (European journal of cell biology, 2022)
Ends that are not written are not given here.

Experiments:
Assay in all cases: fluorescence polarisation
[1] = target: Rabbit skeletal muscle actin (unlabeled actin monomers) (rabbit) (UniProt P68135)
profilin-1 (wild-type) = profilin-1 (wild-type) (UniProt P07737 1-140)
[2] = target: profilin-1 H120E (actin-binding impaired control) (UniProt P07737 1-140, H120E)
[3] = target: profilin-1 A20T (ALS-associated variant) (UniProt P07737 1-140, A20T)
profilin-1 A20T (ALS-associated variant), sequence (P07737 whole entry A20T): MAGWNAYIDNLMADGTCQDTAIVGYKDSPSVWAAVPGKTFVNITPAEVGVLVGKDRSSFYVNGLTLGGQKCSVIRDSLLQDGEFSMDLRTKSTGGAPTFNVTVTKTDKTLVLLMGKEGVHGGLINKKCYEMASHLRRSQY

[4] = target: profilin-1 C71G (ALS-associated variant) (UniProt P07737 1-140, C71G)
profilin-1 C71G (ALS-associated variant), sequence (P07737 whole entry C71G): as the sequence (P07737 whole entry A20T) above, with T20A, C71G counted along it

[5] = target: profilin-1 T109M (ALS-associated variant) (UniProt P07737 1-140, T109M)
profilin-1 T109M (ALS-associated variant), sequence (P07737 whole entry T109M): as the sequence (P07737 whole entry A20T) above, with T20A, T109M counted along it

[6] = target: profilin-1 M114T (ALS-associated variant) (UniProt P07737 1-140, M114T)
profilin-1 M114T (ALS-associated variant), sequence (P07737 whole entry M114T): as the sequence (P07737 whole entry A20T) above, with T20A, M114T counted along it

[7] = target: profilin-1 E117G (ALS-associated variant) (UniProt P07737 1-140, E117G)
profilin-1 E117G (ALS-associated variant), sequence (P07737 whole entry E117G): as the sequence (P07737 whole entry A20T) above, with T20A, E117G counted along it

[8] = target: profilin-1 G118V (ALS-associated variant) (UniProt P07737 1-140, G118V)
profilin-1 G118V (ALS-associated variant), sequence (P07737 whole entry G118V): as the sequence (P07737 whole entry A20T) above, with T20A, G118V counted along it

[9] = target: profilin-1 R136W (ALS-associated variant) (UniProt P07737 1-140, R136W)
profilin-1 R136W (ALS-associated variant), sequence (P07737 whole entry R136W): as the sequence (P07737 whole entry A20T) above, with T20A, R136W counted along it

[10] = target: profilin-1 Q139L (ALS-associated variant) (UniProt P07737 1-140, Q139L)
profilin-1 Q139L (ALS-associated variant), sequence (P07737 whole entry Q139L): as the sequence (P07737 whole entry A20T) above, with T20A, Q139L counted along it

profilin-1 (wild-type) (UniProt P07737 1-140), sequence (P07737 whole entry): as the sequence (P07737 whole entry A20T) above, with T20A counted along it
profilin-1 (wild-type) (from UniProt P07737 1-140) (natural protein; other documents disagree on this pair), sequence (P07737 whole entry): as the sequence (P07737 whole entry A20T) above, with T20A counted along it
profilin-1 H120E (actin-binding impaired control), sequence (P07737 whole entry H120E): as the sequence (P07737 whole entry A20T) above, with T20A, H120E counted along it

profilin-1 (wild-type) (from UniProt P07737 1-140) (natural protein; other documents disagree on this pair)
Kd [1]: 99.6 nM

profilin-1 R88E (actin-binding impaired control) (from UniProt P07737 1-140) (natural protein)
Kd [1]: 3720 nM

IPPPPPLPGVASIPPPPPLPG (also: FITC, position not given here) [FITC-mDia1-derived poly-L-proline (PLP) peptide]
Kd (profilin-1 (wild-type)): 2710 nM | binding result [2]: binds | Kd [3]: 1650 nM | binding result [4]: binds | binding result [5]: binds | Kd [6]: 2040 nM | binding result [7]: binds | Kd [8]: 2090 nM | binding result [9]: binds | Kd [10]: 3470 nM
